In PMC3566586 (Molecular Cell, 2010):
Read-outs that look alike come from different tables or passages of the source.

Legend:
[1] = molecular target: T1, recombinant Flag-tagged Yox1p(151–274) (S. cerevisiae, UniProt P34161 151-274); assay: pull-down
T1 sequence (looked up): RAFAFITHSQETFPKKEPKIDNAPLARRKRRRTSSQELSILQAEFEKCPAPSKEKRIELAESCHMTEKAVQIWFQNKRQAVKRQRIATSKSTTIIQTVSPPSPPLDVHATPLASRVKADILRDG

[2] = molecular target: Mcm1p(1-98);Yox1p full length (Saccharomyces cerevisiae;Saccharomyces …, UniProt P11746;P34161 1-98;1-385, |); assay: immobilized template pull-down
Mcm1p(1-98);Fkh2p(1-458) [3] = molecular target: T2, Mcm1p(1-98);Fkh2p(1-458) (Saccharomyces cerevisiae;Saccharomyces …, UniProt P11746;P41813 1-98;1-458, |); assay: EMSA
Mcm1p(1-98) [4] = molecular target: T3, Mcm1p(1-98) (Saccharomyces cerevisiae, UniProt P11746 1-98); assay: EMSA
Mcm1p(1-98) [5] = molecular target: T3, Mcm1p(1-98); assay: EMSA; remark: listed apart in the source
[6] = molecular target: Mcm1p(1-98);Yox1p(151-274) recombinant (Saccharomyces cerevisiae;Saccharomyces …, UniProt P11746;P34161 1-98;151-274, |); assay: EMSA
Mcm1p(1-98);Fkh2p(1-458) [7] = molecular target: T2, Mcm1p(1-98);Fkh2p(1-458); assay: EMSA; remark: listed apart in the source
Mcm1p(1-98);Yox1p(E196H) = Mcm1p(1-98);Yox1p(E196H) (Saccharomyces cerevisiae;Saccharomyces …, UniProt P11746;P34161 1-98;151-274, |E196H); assay: EMSA
[8] = molecular target: Mcm1p(1-96);Fkh2p full length (Saccharomyces cerevisiae;Saccharomyces …, UniProt P11746;P41813 1-96;1-862, |); assay: EMSA
[9] = molecular target: Mcm1p(1-96);Yox1p(151-274) recombinant (Saccharomyces cerevisiae;Saccharomyces …, UniProt P11746;P34161 1-96;151-274, |); assay: competition
[10] = molecular target: T4, Yox1p(176-274) recombinant (Saccharomyces cerevisiae, UniProt P34161 176-274); assay: EMSA
T4 sequence: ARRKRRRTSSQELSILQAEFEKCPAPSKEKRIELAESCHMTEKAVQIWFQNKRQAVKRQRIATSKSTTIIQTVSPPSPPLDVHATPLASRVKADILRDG

[11] = molecular target: Mcm1p(1-98);Yox1p(151-274) (Saccharomyces cerevisiae;Saccharomyces …, UniProt P11746;P34161 1-98;151-274, |); assay: EMSA
[12] = molecular target: Mcm1p(1-98);Yox1p(N226Q) recombinant (Saccharomyces cerevisiae;Saccharomyces …, UniProt P11746;P34161 1-98;151-274, |N226Q); assay: competition
[13] = molecular target: T5, Yox1p(151-274) recombinant (Saccharomyces cerevisiae, UniProt P34161 151-274); assay: EMSA
T5 sequence: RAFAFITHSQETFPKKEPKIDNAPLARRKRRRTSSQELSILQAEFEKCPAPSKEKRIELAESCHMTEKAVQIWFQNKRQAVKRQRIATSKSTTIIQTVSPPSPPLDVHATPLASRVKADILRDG

Fkh2p(325-458) = molecular target: T6, Fkh2p(325-458) (Saccharomyces cerevisiae, UniProt P41813 325-458); assay: EMSA
T6 sequence: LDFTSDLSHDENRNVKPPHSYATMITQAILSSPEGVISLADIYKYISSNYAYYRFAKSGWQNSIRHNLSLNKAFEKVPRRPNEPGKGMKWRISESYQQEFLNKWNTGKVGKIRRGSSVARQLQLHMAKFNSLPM

Yox1p(F155A) = molecular target: T7, Yox1p(F155A) (Saccharomyces cerevisiae, UniProt P34161 151-274, F155A); assay: EMSA
T7 sequence: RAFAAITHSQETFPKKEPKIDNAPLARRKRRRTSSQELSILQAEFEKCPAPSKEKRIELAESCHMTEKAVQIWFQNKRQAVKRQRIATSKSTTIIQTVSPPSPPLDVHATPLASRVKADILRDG

Yox1p(F153A) = molecular target: T8, Yox1p(F153A) (Saccharomyces cerevisiae, UniProt P34161 151-274, F153A); assay: EMSA
T8 sequence: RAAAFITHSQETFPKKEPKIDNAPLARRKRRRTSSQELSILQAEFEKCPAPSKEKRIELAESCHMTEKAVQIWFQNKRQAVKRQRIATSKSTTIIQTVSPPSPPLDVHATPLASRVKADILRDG

Yox1p F163 mutant = molecular target: T9, Yox1p F163 mutant (Saccharomyces cerevisiae, UniProt P34161 151-274, F163A); assay: EMSA
T9 sequence: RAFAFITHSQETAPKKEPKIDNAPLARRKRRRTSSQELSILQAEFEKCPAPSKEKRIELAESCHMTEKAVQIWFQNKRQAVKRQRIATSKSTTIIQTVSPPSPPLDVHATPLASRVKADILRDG

[14] = molecular target: Mcm1p(1-96);Yox1p(151-274) recombinant;Fkh2p(325-458) (Saccharomyces cerevisiae;Saccharomyces …, UniProt P11746;P34161;P41813 1-96;151-274;325-458, ||); assay: EMSA

Measured: binding result

Sequence of Mcm1p(1-98);Yox1p full length (P34161 whole entry, one chain of several): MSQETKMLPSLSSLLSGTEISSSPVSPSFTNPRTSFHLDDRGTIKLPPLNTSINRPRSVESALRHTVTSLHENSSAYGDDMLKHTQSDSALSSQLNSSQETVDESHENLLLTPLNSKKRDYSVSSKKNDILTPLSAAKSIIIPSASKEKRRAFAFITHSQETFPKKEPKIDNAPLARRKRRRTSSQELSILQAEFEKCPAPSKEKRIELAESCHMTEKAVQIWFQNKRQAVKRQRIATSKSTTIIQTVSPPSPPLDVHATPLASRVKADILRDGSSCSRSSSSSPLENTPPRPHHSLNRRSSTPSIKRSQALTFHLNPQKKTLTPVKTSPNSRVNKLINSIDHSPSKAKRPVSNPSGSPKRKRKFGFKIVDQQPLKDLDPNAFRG
Sequence of Mcm1p(1-96);Fkh2p full length (P41813 whole entry, one chain of several): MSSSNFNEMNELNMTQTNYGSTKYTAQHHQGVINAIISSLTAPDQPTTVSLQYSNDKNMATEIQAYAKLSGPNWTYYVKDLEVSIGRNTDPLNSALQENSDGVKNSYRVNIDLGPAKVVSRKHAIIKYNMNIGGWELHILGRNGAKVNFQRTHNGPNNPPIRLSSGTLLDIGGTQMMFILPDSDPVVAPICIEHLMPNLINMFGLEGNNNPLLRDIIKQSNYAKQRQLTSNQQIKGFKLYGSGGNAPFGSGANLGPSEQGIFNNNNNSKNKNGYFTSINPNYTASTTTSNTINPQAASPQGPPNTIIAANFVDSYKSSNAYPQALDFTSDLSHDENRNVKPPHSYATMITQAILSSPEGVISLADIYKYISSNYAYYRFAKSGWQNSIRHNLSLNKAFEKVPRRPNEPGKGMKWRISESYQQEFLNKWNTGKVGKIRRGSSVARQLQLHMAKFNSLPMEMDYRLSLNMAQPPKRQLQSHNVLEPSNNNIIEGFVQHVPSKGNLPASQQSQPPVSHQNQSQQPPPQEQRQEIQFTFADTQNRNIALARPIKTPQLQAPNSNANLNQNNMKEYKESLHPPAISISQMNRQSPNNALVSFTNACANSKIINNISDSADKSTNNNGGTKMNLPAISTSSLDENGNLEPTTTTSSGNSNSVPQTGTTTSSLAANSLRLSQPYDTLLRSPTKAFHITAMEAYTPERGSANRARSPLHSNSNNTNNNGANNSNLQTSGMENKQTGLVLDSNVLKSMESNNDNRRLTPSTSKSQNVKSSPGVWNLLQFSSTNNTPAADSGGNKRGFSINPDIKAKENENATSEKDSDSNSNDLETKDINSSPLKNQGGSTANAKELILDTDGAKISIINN

B1: MBP-Mcm1p(1–96) (domain or fragment, S. cerevisiae, UniProt P11746 1-96, looked up)
chain: MSDIEEGTPTNNGQQKERRKIEIKFIENKTRRHVTFSKRKHGIMKKAFELSVLTGTQVLLLVVSETGLVYTFSTPKFEPIVTQQEGRNLIQACLNA
binds: [1]

B2: SPO12 WT biotin (dsDNA)
DNA 1: TCGAGGTTAATATCTTTTCCTAATTTGGAAATATGTAAACAGGGC
DNA 2: TCGAGCCCTGTTTACATATTTCCAAATTAGGAAAAGATATTAACC
binds: [2]

B3: SPO12 mut (Yox1p site) (dsDNA)
DNA 1: TCGAGGTTAGGATCTTTTCCTAATTTGGAAATATGTAAACAGGGC
DNA 2: TCGAGCCCTGTTTACATATTTCCAAATTAGGAAAAGATCCTAACC
binds: Mcm1p(1-98);Fkh2p(1-458) [3] | Mcm1p(1-98) [4]

B4: SPO12 WT (dsDNA)
DNA 1: TCGAGGTTAATATCTTTTCCTAATTTGGAAATATGTAAACAGGGC
DNA 2: TCGAGCCCTGTTTACATATTTCCAAATTAGGAAAAGATATTAACC
no binding: [12]
not listed: [1] | [2] | Mcm1p(1-98);Fkh2p(1-458) [3] | Mcm1p(1-98) [4]
binds: all other assays above
